By Kd is commonly meant the constant that tells how readily two partners part at equilibrium.

Positions count from the first letter of the chain named.

Results on eight molecules are retold here after US20170267750A1 (CELLDEX THERAPEUTICS, published 2017).

T1: TIM-1 (T cell, immunoglobulin domain and mucin domain 1), cell membrane-bound (human, UniProt Q96D42 21-364)
T1 construct: whole, on cells; also called TIM-1 antigen expressed on ACHN, CAKI-2, CAKI-1 cells; TIM-1 on polarized human CD4+ Th1/Th2 cells
T1 sequence (looked up): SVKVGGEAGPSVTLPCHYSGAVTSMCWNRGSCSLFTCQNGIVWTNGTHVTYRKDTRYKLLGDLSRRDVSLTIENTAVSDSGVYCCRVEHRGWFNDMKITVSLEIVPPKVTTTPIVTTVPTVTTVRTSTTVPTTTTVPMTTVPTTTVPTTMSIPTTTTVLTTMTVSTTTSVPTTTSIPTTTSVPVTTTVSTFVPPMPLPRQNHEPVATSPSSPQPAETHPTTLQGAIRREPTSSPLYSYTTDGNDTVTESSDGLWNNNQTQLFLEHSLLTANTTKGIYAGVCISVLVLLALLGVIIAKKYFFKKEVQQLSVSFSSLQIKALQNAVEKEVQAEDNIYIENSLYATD

T2: alanine scan peptide PMPLPRQAHE
T2 construct: Synthetic; N replaced by A
T2 peptide: PMPLPRQAHE

T3: alanine scan peptide PMPLARQNHE
T3 construct: Synthetic; third P replaced by A
T3 peptide: PMPLARQNHE

T4: TIM-1 antigen, soluble extracellular domain of TIM-1 (CG57008-02) with a V5-HIS tag (human, UniProt Q96D42 21-288)
T4 construct: also called TIM-1 immunogen; TIM-1 protein
T4 sequence: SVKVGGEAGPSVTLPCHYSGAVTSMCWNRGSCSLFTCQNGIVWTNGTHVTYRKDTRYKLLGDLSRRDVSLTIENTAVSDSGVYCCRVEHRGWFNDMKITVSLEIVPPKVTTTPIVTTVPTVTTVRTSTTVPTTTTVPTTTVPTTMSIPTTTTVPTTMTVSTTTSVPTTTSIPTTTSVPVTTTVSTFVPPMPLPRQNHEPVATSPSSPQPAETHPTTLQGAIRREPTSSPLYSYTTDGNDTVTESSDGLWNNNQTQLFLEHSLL

B1: anti-TIM-1 monoclonal antibody 2.59 (antibody, V domains shown)
VH: QSGPRLVKPSQTLSLTCTVSGGSISSDGYYWSWIRQHPGKGLEWIGYIYYSGSTFYNPSLKSRVAISVDTSKNQFSLKLSSVTAADTAVYYCARESPHSSNWYSGFDCWGQGTLVTVSS
VL: TQSPDFQSVTPKEKVTITCRASQSIGSRLHWYQQKPDQSPKLLIKYASQSFSGVPSRFSGSGSGTDFTLTINSLEAEDAATYYCHQSSNLPFTFGPGTKVDIKR
B2: anti-TIM-1 monoclonal antibody 2.70.2 (antibody, human IgG4, kappa, V domains shown)
VH: QVQLVESGGGVVQPGRSLRLSCAASGFIFSRYGMHWVRQAPGKGLKWVAVIWYDGSNKLYADSVKGRFTISRDNSKNTLYLQMNSLRAEDTAVYYCARDYYDNSRHHWGFDYWGQGTLVTVSS
VL: DIVMTQTPLSLPVTPGEPASISCRSSRSLLDSDDGNTYLDWYLQKPGQSPQLLIYTLSYRASGVPDRFSGSGSGTDFTLKISRVEAEDVGVYYCMQRVEFPITFGQGTRLEIKR
notes: also called mAb 2.70.2; mAb2.70.2
B3: anti-TIM-1 monoclonal antibody 1.29 (antibody, V domains shown)
VH: QVQLQESGPGLVKPSETLSLTCTVSGGSVSSGGYYWSWIRQPPGKGLEWIGFIYYTGSTNYNPSLKSRVSISVDTSKNQFSLKLSSVTAADAAVYYCARDYDWSFHFDYWGQGTLVTVSS
VL: DIQMTQSPSSLSASIGDRVTITCRASQGIRNDLGWYQQKPGKAPKRLIYAASSLQSGVPSRFSGSGSGTEFTLTISSLQPEDFATYYCLQHNSYPLTFGGGTKVEIKR
notes: also called mAb 1.29
B4: anti-TIM-1 monoclonal antibody 2.16 (antibody, V domains shown)
VH: EQSGGGVVKPGGSLRLSCAASGFTFSNAWMTWVRQAPGKGLEWVGRIKRRTDGGTTDYAAPVKGRFTISRDDSKNTLYLQMNNLKNEDTAVYYCTSVDNDVDYWGQGTLVTVSS
VL: not shown
notes: also called 2.16.1 (subclone)
B5: anti-TIM-1 monoclonal antibody 2.76 (antibody, V domains shown)
VH: EQSGGGVVQPGRSLRLSCAASGFTFSSYGMYWVRQAPGKGLEWVAVIWYDGSNKYYADSVKGRFTISRDNSKNTLYLQMNSLRAEDTAVYYCARDFYDSSRYHYGMDVWGQGTTVTVSS
VL: TQCPLSLPVTPGEPASISCRSSQSLLDSDDGNTYLDWYLQKPGQSPQLLIYTVSYRASGVPDRFSGSGSGTDFTLKISRVEAEDVGVYYCMQRIEFPITFGQGTRLEIKR
B6: anti-TIM-1 monoclonal antibody 2.70 (antibody, V domains shown)
VH: B2 VH
VL: B2 VL
B7: anti-TIM-1 monoclonal antibody 2.61 (antibody, V domains shown)
VH: B2 VH with S7A, I28T, S30R, R31S, L59Y, A61T, A97V
VL: B3 VL with L11R, S12C, I15V, G34A, G66R, T85A, L96P, T97S, G100Q, V104L
B8: anti-TIM-1 monoclonal antibody 1.37 (antibody, V domains shown)
VH: EVQLVESGGGLVQPGGSLRLSCAASGFTFTNYWMSWVRQAPGKGLEWVANIQQDGSEKYYVDSVRGRFTISRDNAKNSLYLQMNSLRAEDSAVYYCARWDYWGQGTLVTVSS
VL: DIVMTQTPLSSTVILGQPASISCRSSQSLVHSDGNTYLNWLQQRPGQPPRLLIYMISNRFSGVPDRFSGSGAGTDFTLKISRVEAEDVGVYYCMQATESPQTFGQGTKVEIKR

For one assay, the target named is T1, TIM-1 (T cell, immunoglobulin domain …). In words: FACS on CAKI-2 cells, normalised to isotype control pK16.
Turning to B1, the “Geo Mean Ratio (relative to negative control)” value came to 7.7 ratio.

Take B2: the “Geo Mean Ratio (relative to negative control)” value amounted to 8.8 ratio.

For another assay, the target named is T2, alanine scan peptide PMPLPRQAHE
In words: ELISA on coated synthetic peptide (alanine scan). (ELISA stands for enzyme-linked immunosorbent assay.)
On to B2, for which the binding result is reported as “no binding”.

Another assay addresses T3, alanine scan peptide PMPLARQNHE
In words: ELISA on coated synthetic peptide (alanine scan).
Consider B2, for which the binding result was “no binding”.

The target in the next assay is T1, TIM-1 (T cell, immunoglobulin domain …). The experiment in a line: FACS on ACHN cells, normalised to isotype control pK16.
Take B1: the “Geo Mean Ratio (relative to negative control)” value was 15.2 ratio.

Regarding B2, the “Geo Mean Ratio (relative to negative control)” value was 19.4 ratio.

B3: the “Geo Mean Ratio (relative to negative control)” value was determined as 17.9 ratio.

As for B4, the “Geo Mean Ratio (relative to negative control)” value stood at 7.9 ratio.

Another assay has as its target T4, TIM-1 antigen, soluble extracellular …. The experiment in a line: BIAcore 2000, 25 C, mAb captured on goat anti-human surface, TIM-1 antigen injected at 292 nM. (Surface plasmon resonance follows binding to a sensor surface in real time, without labels.)
Description: BiaCore® analysis was used to determine binding affinity of anti-TIM-1 antibody to TIM-1 antigen. The analysis was performed at 25° C. using a BiaCore® 2000 biosensor equipped with a research-grade CMS sensor chip. A high-density goat a human antibody surface over a CMS BiaCore® chip was prepared using routine amine coupling. Antibody supernatants were diluted to ˜5 μg/mL in HBS-P running buffer containing 100 μg/mL BSA and 10 mg/mL carboxymethyldextran. The antibodies were then captured individually on a separate surface using a 2 minute contact time, and a 5 minute wash for stabilization of antibody baseline.
Double-referenced binding data were obtained by subtracting the signal from a control flow cell and subtracting the baseline drift of a buffer inject just prior to the TIM-1 injection. TIM-1 binding data for each mAb were normalized for the amount of mAb captured on each surface. The normalized, drift-corrected responses were also measured.
With B5, the Kd was 0.57 nM.

For B1, the Kd came to 0.38 nM.

On to B6, for which the Kd turned out to be 2.71 nM.

With B3, binding was put at a Kd of 3.64 nM.

Molecule B7 had an equilibrium dissociation constant (Kd) of 1 nM.

In turn, B8 came in with a Kd of 2.78 nM.

The molecule B4 yielded a dissociation constant (Kd) of 0.79 nM.
